Measurements as given in patent publication US20240425559A1 (UNIVERSITY OF PITTSBURGH OF THE COMMONWEALTH SYSTEM OF …, published 2024).
Residue numbers refer to the chain shown, from its start. Numbers in names are those of the source.

B1: mmTGF-β2-7M (ligand)
chain: ALDAAYCFRNVQDNCCLRPLYIDFRKDLGWKWIHEPKGYNANFCAGACPYRASKSPSCVSQDLEPLTIVYYVGRKPKVEQLSNMIVKSCKCS
notes: also called engineered human TGF-β2 monomer mmTGF-β2-7M; mmTGF-B27M
B2: mmTGF-β2-2M-Del7-16 (ligand)
chain: B1 chain with C7V, C16A, K26R, V69L, V72I, K75T, V78I
B3: mmTGF-β2-7M2R (ligand)
chain: B1 chain with S57R, V59R
B4: mmTGF-β2-7M-PRDC (ligand)
chain: KEVLASSQEALVVTERKYLKSDWCKLRPLYIDFRKDLGWKWIHEPKGYNANFCYGQCNSFYIPRHVKKEEDSFQSSAFCVSQDLEPLTIVYYVGRKPKVEQLSNMIVKSCRCMSV

Tests used:
[1] = target: TGF-β type II receptor (TβRII) on HEK-293 CAGA-Luc TGF-β reporter cells (UniProt P37173 23-567, limits assumed); experiment: cell-based or functional assay
Chain of TGF-β type II receptor (TβRII) on HEK-293 CAGA-Luc TGF-β reporter cells (P37173 23-567 limits assumed): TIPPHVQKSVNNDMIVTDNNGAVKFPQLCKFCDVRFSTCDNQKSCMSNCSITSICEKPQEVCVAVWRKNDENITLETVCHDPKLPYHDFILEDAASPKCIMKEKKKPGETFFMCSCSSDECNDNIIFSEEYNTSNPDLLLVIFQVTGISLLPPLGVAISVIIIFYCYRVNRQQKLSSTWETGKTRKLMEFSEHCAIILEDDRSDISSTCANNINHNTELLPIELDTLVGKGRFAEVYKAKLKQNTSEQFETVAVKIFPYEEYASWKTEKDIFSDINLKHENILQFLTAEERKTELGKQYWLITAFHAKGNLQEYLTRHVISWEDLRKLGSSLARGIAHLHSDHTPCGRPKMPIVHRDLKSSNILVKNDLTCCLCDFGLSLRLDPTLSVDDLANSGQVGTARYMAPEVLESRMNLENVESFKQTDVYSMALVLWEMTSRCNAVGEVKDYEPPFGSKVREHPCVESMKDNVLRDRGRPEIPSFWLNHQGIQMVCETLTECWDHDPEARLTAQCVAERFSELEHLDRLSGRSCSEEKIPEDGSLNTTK

[2] = target: T1, TGF-β type II receptor (TβRII) (UniProt P37173 38-159); experiment: ITC, TβRII injected into the monomer, three replicates globally fit to a 1:1 model
T1 construct: A purified protein was injected in ITC and run on native gels; also called TbRII; transforming growth factor-β type II receptor
T1 sequence (P37173 38-159 limits assumed): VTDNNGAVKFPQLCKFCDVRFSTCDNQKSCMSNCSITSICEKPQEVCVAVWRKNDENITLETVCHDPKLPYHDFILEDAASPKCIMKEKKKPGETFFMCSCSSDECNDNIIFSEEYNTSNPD
Excerpt: (§1) FIG. 5: Binding of the engineered TGF-beta monomers (mmTGF-β2-7M, left; mmTGF-β2-7M2R, middle; and mmTGF-β2-2M-Del7-16, right) to the TGF-β type II receptor (TβRII) as detected by isothermal titration calorimetry (ITC). Upper panels depict the raw thermograms for three replicate titrations, while the lower panels depict the integrated heat (data points) for the three replicate titrations globally fit to a 1:1 binding isotherm (smooth line).
(§2) In order to evaluate the ability of the mmTGF-β2-7M variants described herein (mmTGF-β2-7M2R (SEQ ID NO: 4), mmTGF-β2-2M-Del7-16 (SEQ ID NO: 5), and mmTGF-β2-7M-PRDC (SEQ ID NO: 7)) to bind TβRII, isothermal titration calorimetry (ITC) and native gels were used. The ITC binding experiments were performed by injecting increasing amounts of TβRII into mmTGF-β2-7M2R (SEQ ID NO: 4) or mmTGF-β2-2M-Del7-16 (SEQ ID NO: 5), with mmTGF-β2-7M (SEQ ID NO: 3) used a reference control. These titrations yielded readily detectable isotherms with a large negative enthalpy and a near 1:1 binding stoichiometry (FIG. 5).

[3] = target: T1, TGF-β type II receptor (TβRII); experiment: ITC; TβRII injected into the monomer; three replicate titrations globally fit to a 1:1 binding isotherm
Excerpt: as §1, §2

Binder | IC50, HEK-293 CAGA-Luc TGF-β reporter assay, stimulation with 10 pM TGF-β3 [1] [nM] | Kd [2] [nM] | ΔG [3] [kcal/mol] | ΔH [3] [kcal/mol] | ΔS [3] [cal/mol•K] | fold change of IC50 relative to mmTGF-β2-7M, HEK-293 CAGA-Luc TGF-β reporter assay [1] [fold]
B1 | 58.2 | 60.5 | -9.85 | -4.63 | 17.5 | 
B2 | 111 | 80.1 | -10 | -7.67 |  | 
B3 | 53.3 | 75.1 | -10.1 | -10.5 | -1.44 | 
B4 | 282 |  |  |  |  | ~5
